Assay results reported in the supplement of paper PMC10126150.
± gives the standard deviation of the averaged measurements.

system: ATP; experiment: switch fluorescence ratio, 500 uM ATP over buffer (Cy3 cluster intensity, sum of 5 cycles each) (fold (ratio)); higher = stronger signal-on switching upon ATP binding; sequences stand for … in TCGTCGGCAGCGTCAGATGTGTATAAGAGACAGTTTTTTTTTTTTTTTTTTTTTTTTT…TC; conditions: aptamer strand: ATP DNA aptamer (quencher-CACCTGGGGGAGTATTGCGGAGGAAGG + anchor), 100 nM annealed; ATP concentration: 500 uM
How it was run: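 Five buffer/ATP imaging cycles were run on Cy3-labelled switching-strand clusters on a modified Illumina MiSeq flow-cell, with NaOH stripping and re-annealing between cycles. In each cycle, clusters annealed to 100 nM quencher-labelled ATP aptamer were imaged in selection buffer, then after 15 min with 500 uM ATP at 22 °C. Per cluster, the fluorescence ratio is summed target-cycle over summed buffer-cycle Cy3 intensity, averaged per switch-domain sequence. Only clusters within 100-1000 RFU were kept.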
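Further: ATP exposure 15 min at 22 °C before imaging.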

| Sequence | switch fluorescence ratio |
| --- | --- |
| TGTTGCGTGC | 1.03 ± 0.038 |
| CTTTGGTAGG | 0.992 ± 0.025 |
| ATGGGATTTA | 1.04 ± 0.024 |
| TCGGGGGTCG | 0.954 ± 0.097 |
| TTCAGCATTT | 1.1 ± 0.068 |
| TTTTGTGGTA | 1.03 ± 0.013 |
| GGGGTCGGGC | 0.998 ± 0.015 |
| GGATTTTTTG | 0.983 ± 0.021 |
| CTTGAGGGGA | 0.983 ± 0.032 |
| TGGTCTTCGT | 0.992 ± 0.057 |
| TCAGATTAGC | 0.998 ± 0.018 |
| GGGTCCAGGG | 1.228 ± 0.0082 |
| AAGGGTTGTC | 0.999 ± 0.088 |
| GGTACGGGCC | 1.011 ± 0.01 |
| TGGAATGGTG | 1.05 ± 0.015 |
| CATGTATTTT | 0.991 ± 0.041 |
| TCAGTTTTCC | 1.02 ± 0.018 |
| AAAACAGTAA | 1.02 ± 0.032 |
| TAAAAGGATT | 0.989 ± 0.042 |
| TTTAAAGAAT | 1.04 ± 0.079 |
| TTGGTGTTTT | 1.02 ± 0.03 |
| ATCCTTGTTG | 0.965 ± 0.027 |
| TTACCATTGG | 1.04 ± 0.082 |
| CGCTATAAGG | 1.03 ± 0.017 |
| TTGGGTGTAG | 1.04 ± 0.025 |

| Sequence | switch fluorescence ratio |
| --- | --- |
| TACTGGACTT | 1.14 ± 0.033 |
| GGGATTTGGT | 1.02 ± 0.02 |
| AAGTGGGGG | 0.992 ± 0.016 |
| TTTTTAGGTT | 1.04 ± 0.064 |
| GGGTGTTTGG | 1.03 ± 0.026 |
| GCTTACTGTG | 1.01 ± 0.037 |
| CGTGTGAGGG | 1.01 ± 0.015 |
| AAACTTTTTC | 1.02 ± 0.065 |
| CGGCAGGATG | 1.01 ± 0.024 |
| TGTGTGGTGT | 0.993 ± 0.036 |
| GATAGTCATG | 0.985 ± 0.015 |
| CGTATGCTGG | 1.02 ± 0.019 |
| GAGTTGTGTA | 0.985 ± 0.035 |
| CGGGGCGGCG | 0.986 ± 0.002 |
| AGGTCAGGCA | 1.002 ± 0.0075 |
| TGCGTTCAAG | 0.9721 ± 0.0056 |
| ACAGGGGTGT | 1.09 ± 0.014 |
| TAGAGTTCTC | 1.01 ± 0.013 |
| ACCCATTGTA | 1.064 ± 0.0071 |
| CTTGAATGCG | 0.999 ± 0.031 |
| GCTCCTGAGG | 1.073 ± 0.0081 |
| TATCATTGGG | 0.968 ± 0.029 |
| GTGTAGAGTT | 1.02 ± 0.016 |
| GGCGATGCGC | 1.03 ± 0.018 |
| CCAAGTGGGA | 0.985 ± 0.01 |

| Sequence | switch fluorescence ratio |
| --- | --- |
| GGCTGTTCGG | 0.988 ± 0.036 |
| ATTGATGAGG | 0.972 ± 0.012 |
| CGGACTGGGA | 1.007 ± 0.0052 |
| GGGTAGAGGA | 0.99 ± 0.03 |
| TCCGGAGGAC | 1.86 ± 0.03 |
| AACACGGAAC | 1.29 ± 0.027 |
| CGGGATTGAG | 0.979 ± 0.0058 |
| ACGGCGGTGC | 1.034 ± 0.0078 |
| TTGGTATAGT | 0.9999 ± 0.0047 |
| GTAAGATTGA | 0.986 ± 0.015 |
| TTATTGACGT | 1.003 ± 0.0024 |
| AAGCTAGGGA | 1.01 ± 0.05 |
| CCGAATCGGA | 1.02 ± 0.054 |
| AAATTGGCTT | 0.97 ± 0.044 |
| AGAGGGCATG | 0.987 ± 0.026 |
| CTAGGTTTGG | 1.02 ± 0.033 |
| TTAGGGTATT | 1.02 ± 0.028 |
| CATGTTTCTG | 0.9927 ± 0.0078 |
| AGTGGAGGT | 0.97 ± 0.041 |
| TTGGGGTCCT | 0.984 ± 0.023 |
| GTTGAGGTTC | 1.03 ± 0.035 |
| GACTTGGGGC | 0.993 ± 0.037 |
| TAGGCTTTCG | 0.9957 ± 0.0076 |
| AGGTTGGGTA | 0.979 ± 0.015 |
| GGGTAAGTTG | 0.962 ± 0.05 |

| Sequence | switch fluorescence ratio |
| --- | --- |
| AGCGAGCGAA | 1.01 ± 0.014 |
| TCAGCAAAGT | 1.08 ± 0.019 |
| ACAGACCTAA | 1.14 ± 0.013 |
| ACGGAGGGGT | 1.14 ± 0.13 |
| AAAATCGACC | 1.08 ± 0.011 |
| AGGCGGAACT | 1.02 ± 0.026 |
| ATGGGAGCTG | 0.9831 ± 0.0037 |
| AGTGGTCCTT | 0.974 ± 0.047 |
| AAGGAGGGGC | 1.06 ± 0.13 |
| ATCTCTGTAA | 1.264 ± 0.0068 |
| AATTTCGCTT | 1 ± 0.037 |
| GTGGGGACAC | 0.973 ± 0.036 |
| TGCATTGGGC | 1.03 ± 0.013 |
| AAGGGACTCG | 1.04 ± 0.059 |
| TATGGGTGGG | 0.964 ± 0.018 |
| AACTTCTGCC | 1.025 ± 0.0013 |
| CATATACATT | 1.056 ± 0.0039 |
| GGGGGCGGTG | 1 ± 0.038 |
| TTTGGGATTC | 0.979 ± 0.028 |
| TTGTTTAGGA | 0.9763 ± 0.0012 |
| ATAGGGGAAA | 0.987 ± 0.024 |
| TGCGGTGACC | 1 ± 0.014 |
| GCGTGGGGGA | 1 ± 0.039 |
| TGCCGCAGAG | 1.6 ± 0.16 |
| ACCTGATCGT | 1.087 ± 0.0051 |
